The source of these data is US20260209362A1 (VIB VZW, published 2026).

Numbering of substitutions follows the chain as printed.

The target in this test is T1, human IL-12Rβ2 (human, UniProt Q99665 24-862).
T1 construct: Expressed on HEK293T cells transiently transfected with a pcDNA3 plasmid (Genscript clone OHu21785); also called hIL-12RB2; IL-12 receptor β2 subunit
T1 sequence: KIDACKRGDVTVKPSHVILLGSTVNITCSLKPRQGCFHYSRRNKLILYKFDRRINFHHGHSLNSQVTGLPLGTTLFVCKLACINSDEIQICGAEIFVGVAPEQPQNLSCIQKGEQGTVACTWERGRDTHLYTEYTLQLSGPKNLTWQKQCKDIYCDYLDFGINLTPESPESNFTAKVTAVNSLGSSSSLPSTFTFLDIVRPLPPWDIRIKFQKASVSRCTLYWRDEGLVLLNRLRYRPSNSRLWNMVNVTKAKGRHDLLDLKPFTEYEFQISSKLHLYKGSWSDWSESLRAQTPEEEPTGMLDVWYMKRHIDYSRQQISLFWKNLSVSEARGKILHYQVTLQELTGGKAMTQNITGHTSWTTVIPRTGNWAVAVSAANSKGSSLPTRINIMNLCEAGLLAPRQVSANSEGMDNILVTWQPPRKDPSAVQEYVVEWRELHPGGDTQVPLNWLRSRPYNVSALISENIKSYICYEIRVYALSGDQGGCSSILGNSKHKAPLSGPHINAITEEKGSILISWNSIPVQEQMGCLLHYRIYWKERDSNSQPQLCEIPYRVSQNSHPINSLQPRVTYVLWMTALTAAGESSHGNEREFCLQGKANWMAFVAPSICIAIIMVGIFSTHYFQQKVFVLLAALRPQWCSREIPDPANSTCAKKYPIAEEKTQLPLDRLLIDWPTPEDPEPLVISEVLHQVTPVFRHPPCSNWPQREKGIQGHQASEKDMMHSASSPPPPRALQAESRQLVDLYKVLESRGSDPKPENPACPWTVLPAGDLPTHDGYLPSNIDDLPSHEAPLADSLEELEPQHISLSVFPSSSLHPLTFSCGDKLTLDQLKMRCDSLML
Briefly: flow cytometry, P.E. on transfected HEK293T cells. (In flow cytometry, cells or beads pass a laser one at a time.)

B1: anti-IL-12Rβ2 VHH clone 2CRH33 (VHH, not shown: small tags and cut ends)
VHH: QVQLQESGGGSVQPGWSLRLTCAASGFTFSTSGMHWFRQAPGKGLEWVSSISSGGGDTYYTDSVKGRITISRDNAKNTLYLQLNDLKSEDTAVYYCSKDPSGATRGQGTQVTVSS
notes: periplasmic extract; also called 20363
Regarding B1, the “% cells bound” value stood at 44.8% and the dMFI turned out to be 1120.

B2: anti-IL-12Rβ2 VHH clone 2CRH60 (VHH, not shown: small tags and cut ends)
VHH: B1 VHH with W16G
notes: periplasmic extract
B2: the “% cells bound” value was found to be 45.3% and the dMFI turned out to be 1100.

B3: anti-IL-12Rβ2 VHH clone 3CRHS1 (VHH, not shown: small tags and cut ends)
VHH: QVQLQESGGGSVQPGGSLRLSCAASGFTFSTSGMHWFRQAPGKGLEWVSSIGIIVDSSYYASSVKGRFTISRDNAKNTLYLQMNSLKSEDTAVYYCSKDPTGSSRGQGTQVTVSS
notes: periplasmic extract
B3: the “% cells bound” value was found to be 44.5% and the dMFI came out at 1080.

B4: anti-IL-12Rβ2 VHH clone 3CRH45 (VHH, not shown: small tags and cut ends)
VHH: B3 VHH with S11L, S32F, V55D, S57N, P100T
notes: periplasmic extract
Consider B4, for which the “% cells bound” value was 37.6% and the dMFI came to 742.

B5: anti-IL-12Rβ2 VHH clone 3CRH14 (VHH, not shown: small tags and cut ends)
VHH: B3 VHH with S11L, S62D, Y80F
notes: periplasmic extract
On to B5, for which the “% cells bound” value is 41.7% and the dMFI was 864.

B6: anti-IL-12Rβ2 VHH clone 3CRHS109 (VHH, not shown: small tags and cut ends)
VHH: B3 VHH with S11L, Q82H, P100V
notes: periplasmic extract
As to B6, the “% cells bound” value was 46.5% and the dMFI was 1260.

B7: anti-IL-12Rβ2 VHH clone 3CRH43 (VHH, not shown: small tags and cut ends)
VHH: B3 VHH with T78I, L79V
notes: periplasmic extract
B7: the “% cells bound” value was 45.5% and the dMFI worked out at 1160.

B8: anti-IL-12Rβ2 VHH clone 2CRH80 (VHH, not shown: small tags and cut ends)
VHH: B3 VHH with S11L, D56G, Q82H, P100V
notes: periplasmic extract
For B8, the “% cells bound” value is 40.1% and the dMFI stood at 809.

B9: anti-IL-12Rβ2 VHH clone 3CRHS128 (VHH, not shown: small tags and cut ends)
VHH: B3 VHH with S11L, I53A, I54T, S57N, Q82L
notes: periplasmic extract
For the molecule B9, the “% cells bound” value amounted to 50.5% and the dMFI worked out at 1480.

B10: anti-IL-12Rβ2 VHH clone 3CRHS9 (VHH, not shown: small tags and cut ends)
VHH: QVQLQESGGGLVQPGGSLRLSCTASGSIVSIYNMDWYRQAPGNEREWVASITSSGDPYYDGSAKGRFTISRDNAKMTVYLQMNSLKPEDTAVYYCKVPTEKGNYWGQGTQVTVSS
notes: periplasmic extract
For B10, the “% cells bound” value was 42.1% and the dMFI came out at 1040.

B11: anti-IL-12Rβ2 VHH clone 3CRHS55 (VHH, not shown: small tags and cut ends)
VHH: B10 VHH with P14A, R19N, V29I, E44Q, S54N, P57S, K101N
notes: periplasmic extract
For the molecule B11, the “% cells bound” value turned out to be 40.5% and the dMFI worked out at 961.

B12: anti-IL-12Rβ2 VHH clone 3CRHS148 (VHH, not shown: small tags and cut ends)
VHH: B10 VHH with T23I, V29F, E44Q, S53P, G61D
notes: periplasmic extract
In the case of B12, the “% cells bound” value turned out to be 42% and the dMFI stood at 1030.

B13: anti-IL-12Rβ2 VHH clone 3CRHS3 (VHH, not shown: small tags and cut ends)
VHH: B10 VHH with V29F, E44Q, G61A, A63V, N73S, V97L
notes: periplasmic extract
Take B13: the “% cells bound” value worked out at 47.2% and the dMFI was determined as 1320.

B14: anti-IL-12Rβ2 VHH clone 3CRH18 (VHH, not shown: small tags and cut ends)
VHH: B10 VHH with S27N, E44Q, K86R
notes: periplasmic extract
For B14, the “% cells bound” value amounted to 41.7% and the dMFI is 918.

B15: anti-IL-12Rβ2 VHH clone 3CRHS54 (VHH, not shown: small tags and cut ends)
VHH: B10 VHH with K86E, Y94F
notes: periplasmic extract
Consider B15, for which the “% cells bound” value stood at 41.5% and the dMFI is 970.

B16: anti-IL-12Rβ2 VHH clone 3CRH27 (VHH, not shown: small tags and cut ends)
VHH: B10 VHH with P14A
notes: periplasmic extract
As for B16, the “% cells bound” value came out at 38.9% and the dMFI came to 812.

B17: anti-IL-12Rβ2 VHH clone 3CRHS100 (VHH, not shown: small tags and cut ends)
VHH: B10 VHH with V29F, E44Q, S53P, G61D
notes: periplasmic extract
For B17, the “% cells bound” value was found to be 43.2% and the dMFI came out at 1130.

B18: anti-IL-12Rβ2 VHH clone 3CRH68 (VHH, not shown: small tags and cut ends)
VHH: B10 VHH with V29L, A40V, E44Q, S53P, A63V, T77M
notes: periplasmic extract
Consider B18, for which the “% cells bound” value is 38.2% and the dMFI was 787.

B19: anti-IL-12Rβ2 VHH clone 3CAHS142 (VHH, not shown: small tags and cut ends)
VHH: QVQLQESGGGLVQAGESLTLSCIASGVIKDYAMGWFRQAPGKEREFVAAISWSGVSIYYADSVKGRFTISRDNAKNTVYLQMNSLEPEDTAVYYCAGTEGAYTVAGGSTFGYDMDYWGKGTQVTVSS
notes: periplasmic extract
For B19, the “% cells bound” value came out at 40.9% and the dMFI came to 912.

B20: anti-IL-12Rβ2 VHH clone 3CRH17 (VHH, not shown: small tags and cut ends)
VHH: QVQLQESGGGLVQAGGSLVLSCAASGSAALIFLMSWYRQAPGKQRELVAEVSRYGSTTYADSVEGRFTISRDNAKNIVDLQMNSLKPEDTAVYYCKADQYYGDSLRSSWGRGTQVTVSS
notes: periplasmic extract
Consider B20, for which the “% cells bound” value came to 32.5% and the dMFI was determined as 583.

B21: anti-IL-12Rβ2 VHH clone 2CRH10 (VHH, not shown: small tags and cut ends)
VHH: B20 VHH with Y54G, T68H, Y100N
notes: periplasmic extract; also called 20362
B21: the “% cells bound” value came out at 30.8% and the dMFI amounted to 595.

B22: anti-IL-12Rβ2 VHH clone 3CRH67 (VHH, not shown: small tags and cut ends)
VHH: B20 VHH with V92A
notes: periplasmic extract
As to B22, the “% cells bound” value is 35.1% and the dMFI stood at 645.

B23: anti-IL-12Rβ2 VHH clone 3CRH38 (VHH, not shown: small tags and cut ends)
VHH: B20 VHH with Y54G, Y100N
notes: periplasmic extract
As to B23, the “% cells bound” value worked out at 31.8% and the dMFI amounted to 537.

B24: anti-IL-12Rβ2 VHH clone 3CRHS2 (VHH, not shown: small tags and cut ends)
VHH: B20 VHH with A14L, V19T
notes: periplasmic extract
B24: the “% cells bound” value is 44.5% and the dMFI is 1150.

B25: anti-IL-12Rβ2 VHH clone 2CRH53 (VHH, not shown: small tags and cut ends)
VHH: B20 VHH with N76D
notes: periplasmic extract
On to B25, for which the “% cells bound” value is 35.3% and the dMFI stood at 686.

B26: anti-IL-12Rβ2 VHH clone 3CRHS184 (VHH, not shown: small tags and cut ends)
VHH: B20 VHH with V115L
notes: periplasmic extract
Take B26: the “% cells bound” value stood at 33.3% and the dMFI came out at 625.

B27: anti-IL-12Rβ2 VHH clone 3CRH5 (VHH, not shown: small tags and cut ends)
VHH: B20 VHH with Y54G, Y100N, R111Q
notes: periplasmic extract
For the molecule B27, the “% cells bound” value came to 39.5% and the dMFI was 835.

B28: anti-IL-12Rβ2 VHH clone 2CRH73 (VHH, not shown: small tags and cut ends)
VHH: B20 VHH with V19R, S21T, A23T, Y54R
notes: periplasmic extract
With B28, the “% cells bound” value was 36.7% and the dMFI was 707.

B29: anti-IL-12Rβ2 VHH clone 3CAHS170 (VHH, not shown: small tags and cut ends)
VHH: QVQLQESGGGLVQAGGSLRLSCVASGRTFSSYAMGWFRQGPGKEREFVAAISWSGVSIYYADSVKGRFTISRDNAKNTVYLQMNSLEPEDTAVYYCAGTEGAYTVAGGSTFGYDMDYWGKGTQVTVSS
notes: periplasmic extract
For B29, the “% cells bound” value was determined as 38.3% and the dMFI was determined as 809.

B30: anti-IL-12Rβ2 VHH clone 2CAH27 (VHH, not shown: small tags and cut ends)
VHH: B29 VHH with L11S, A14S
notes: periplasmic extract
For B30, the “% cells bound” value was 36.7% and the dMFI was found to be 668.

B31: anti-IL-12Rβ2 VHH clone 3CAH48 (VHH, not shown: small tags and cut ends)
VHH: B29 VHH with V23A, I58T, E87R, G98A
notes: periplasmic extract; also called 20360
As for B31, the “% cells bound” value came out at 39.4% and the dMFI came to 801.

B32: anti-IL-12Rβ2 VHH clone 3CAHS39 (VHH, not shown: small tags and cut ends)
VHH: QVQLQESGGGLVQAGGSLRLSCAASGRTINAYIMGWFRQAPGKEREFVAAVSGSGGSTYYADSVKGRFTISRDNAKNTVNLQMDNLRSEDTDVYYCAATYESVYLQNPGQYDYWGQGTQVTVSS
notes: periplasmic extract
B32: the “% cells bound” value was 39% and the dMFI worked out at 918.

B33: anti-IL-12Rβ2 VHH clone 3CAHS150 (VHH, not shown: small tags and cut ends)
VHH: B32 VHH with L11S, I33V, V51I
notes: periplasmic extract
Regarding B33, the “% cells bound” value is 47.4% and the dMFI was found to be 1270.

B34: anti-IL-12Rβ2 VHH clone 3CAHS53 (VHH, not shown: small tags and cut ends)
VHH: B32 VHH with Q13E, A14P, N74S
notes: periplasmic extract
For B34, the “% cells bound” value stood at 49.3% and the dMFI was 1460.

B35: anti-IL-12Rβ2 VHH clone 3CAHS52 (VHH, not shown: small tags and cut ends)
VHH: B32 VHH with L11S
notes: periplasmic extract
B35: the “% cells bound” value was 44.3% and the dMFI amounted to 1110.

B36: anti-IL-12Rβ2 VHH clone 3CAHS43 (VHH, not shown: small tags and cut ends)
VHH: B32 VHH with L11S, Q106R
notes: periplasmic extract
Turning to B36, the “% cells bound” value came out at 47.6% and the dMFI worked out at 1350.

B37: anti-IL-12Rβ2 VHH clone 3CAHS124 (VHH, not shown: small tags and cut ends)
VHH: B32 VHH with A14P
notes: periplasmic extract
On to B37, for which the “% cells bound” value turned out to be 46.3% and the dMFI is 1200.
